Data published in the supplement of paper PMC12636428.

Tested on: Saccharomyces cerevisiae
Test: transcriptional activation domain activity (GFP:mCherry ratio, weighted mean of sorted bins, harmonized to initial dataset scale) (arbitrary fluorescence ratio units); higher = stronger transcriptional activation
Settings: beta-estradiol 1 µM; induction time 4 h
Summary of the method: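 Sorting into 8 bins by GFP:mCherry ratio followed a 4-hour hold at 30 °C after cultures were diluted 1:5 into SC with 1 uM beta-estradiol. The yeast diploids carried a GFP reporter and had barcoded protein tiles, fused to an estradiol-inducible synthetic transcription factor, integrated at URA3. Barcodes were then sequenced, and tiles with under 50 reads were removed. Activation activity is the read-weighted mean of bin median fluorescence, averaged across barcodes and linearly mapped onto the initial dataset scale.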

Row | Sequence | transcriptional activation domain activity
1 | MVQAVIRLILDYCRYLVVSFYQFCLCCYSPLMCVPGHGIMLITSLFLKLIHVI | 58200
2 | YVGKYPESIDTFSIVPRTPTSRLIRSYLKTILANPESRKIFYFLMLNLAYMLV | 58300
3 | KRREKRKKRKQRDQGRKKTKKDGVGEPSNEGGEDDNGESGKDDDDQGKESDKD | 29600
4 | GDADVDGNGHGTHCSGTIAGKKYGVSKKAKIYAVKVLRSNGSGTMADVVAGVE | 59400
5 | MISWLLRFFWLPGGLFFIWCFFSVPFFALRFCSCRHSFFTTFFLCFFYFYFVT | 67100
6 | AGTVPLMIYSTRLARESIGAWRLACLTLFIVTQIRGSVVLLAKSKLWTHILSC | 74600
7 | KKRGKRTTNGKESGRSSKKARAGSQPKPRTNARTANAAAEDDDDDDEEDDHEG | 46700
8 | NTWLLFRQVVDVILLNDFVAYCMFAFSCFRVPEGLSLAVHIMRWVAGIALIAF | 56200
9 | LILARRKGDDRFRRIFMFTMCRLLVTRNHNPDLRRLVTEYLLNVDRFMILLLG | 59000
10 | MHDAISFVLHLRLFAHVVGTSLSDGGPVFLALCMLPPLMRHFVSMSSNLWTTA | 70700
11 | MPEETVTEPRKKRAKIMSACSECRRKKTKCNGEQPCRNCQKSSVQCVYPAATQ | 36500
12 | FKSMIFFLWFLDTLQLAFVIHALYYYLITSYGNIVALMKPTWSILLQIYVTSL | 69400
13 | MLAKGVWLACMFFFFFFFRLSFLNGSWCEYFYYLLCFFNSSYFFSSLSLRISF | 48300
14 | MRSSLPKLYRYGCLYWITGLCIFVYILYERRYYCCHNMPYFFHQPWFLCLSSL | 68800
15 | VTHHYGNRVGVRWLTNGIKCYYVPFAIIHRNAIFPTVWSLFPILRNILIRERI | 63400
16 | FFLLRNGFIFEDMARYRFYTCSQLWLWLIFLAVRSEIGLQRVYVFFVFMLFQV | 49800
17 | LSDDEEEEGGKGREGEGRERKRRGREGKRKGGEERGRGRGREGEREGGEGEGG | 27300
18 | WSVMSCLYLVVRYFGIFLALLCGFWGGLLYIPESVSYGLIVLIEWGFSVYFWF | 41400
19 | NILRPSLGCILFILIRYVSIIVMVVSNYGVLATSFTVEVCNRYYLVAPVFKVL | 46800
20 | TPQCPPTPTPPPAPASKSRPPPHTPTSTRARNNPPPPSCACGGCTRATSGSRR | 33800
21 | NSLYLLPTAMTGEKPVADPLTLIRYILVWFPHIWCVICIHCHWPYFLFLNLTD | 78400

Row | Sequence | transcriptional activation domain activity
22 | STDALLARLVGHLHINPVSQKLVVAFDKIATCLQEVRACIVQRILPFAQRYKQ | 62400
23 | LRAIFLALLPVVYYFTYMLVLFLFLLTYYNPFSPFSHAVRPITPPLISIFSSF | 67800
24 | LMILMIINFIILNIPVAVILLIYFVFKIGFYVFIWKRIRFISILLRATVSHLR | 62900
25 | MASGILGLLVVNFVLLLICFIAYSSQIFVIWPWYGRTVSVELISLLLPFNILV | 42800
26 | SSSNQQTRTRDGPKKKKANRACLHCQKAHLTCDDSRPCQRCVRRGMANSCTEG | 29900
27 | TRHARALEVIKFTKRILSVGGMKYRERMFWWCPIDSATVRAWMLWVLGSIPLV | 62900
28 | KPKRKERSDKGKKRGPRAKDGTGTKAAENTLVAKAKPAAKGQEKRRGKADDAK | 16700
29 | CFFLFYIIHLPLLFIHITKSMYVLIVSRFVSSFPVSVGWAVGRAHGFGPLFAQ | 51900
30 | SQLQDPIAKEHVAFGLRHMYKTLQNEVKSYYNLMQSLHVRLPGLEFLTLWMAF | 50100
31 | MDPSTRRRVTNIGPLDKRRTLRRCEQCRISRTKCEGGRPCHACRARLVGCRDQ | 41700
32 | GKGKRKAVSEEEDKDEEGDEEPVKAKGKGKGKGKRKVVAKKVKRRAPAAADTS | < 6570
33 | ADIHDVVYYGTFTGIFPKLHWWIQKTLHLLKPFGLLSSRQVLVHFMLFHAEQR | 83800
34 | MRGFFWQILLQTCLLPIVTCTLLPTPLMPFCALQHTPLSNLFLLLSWLYFLPY | 48400
35 | FLVCSFHHSIFGFFFWLFFDFFSFLHWRLCVLFPFWFRSKSSFPSFFFIVIIS | 51300
36 | ACSCLSLITIFVGSGVVFQWFVSLIGSVLFQSWILILLLHFRFRYCWRKQGRP | 49200
37 | SASASAAPAASTAGSADKSGGAQEKHRGGRRRGGRGRGDKESGGKEGGSKNTE | 34400
38 | PKRGRGRPPKDPAAKAAAAAAAAEAEANGEKKPGRGRPRKNPVPSGEGGEAVP | 19600
39 | KTPAAANKAGGGGAGGKSAGGRGKTQRARGGRVKQATTQKQTATPKQQQTAAK | 24000
40 | AFMVSRMVILPFVYSLPVLYDILRPFTAHFLRPKFTLTFLWTHFDLITRVFFL | 53400
41 | ILRLSVVLKPHHYWWFLLHLLLILLLVAFTCSSFLILKHGPVWILALFLLLHI | 45400
42 | LYLLVEILLLATYAVNYNVQYIVLETVTPIAVSSCLVPHTRFLFRLILFIQGL | 63200

Row | Sequence | transcriptional activation domain activity
43 | IHQASIAHHPAQHPQRKAHQHSRGGARPQHESQEATRRLGPRHPAHVAALHRR | 30500
44 | DLQRHLLKDHVSQDFKHPMEPLACNWEDCDFLGDDTCSIVNHINCQHGINFDI | 53200
45 | MNRFSIRFTFVISLIDILRGIIILLYTYIHNVGFQCSLISFLFHWLTLVYFFL | 55100
46 | MVEGDEKPARNGGPALQVIVLGSGGGPREDNTTAFLVRSVASGWKRGSVLAVD | 55100
47 | LVGLIGTLVAEPGLGADRFLLCFLFLSYYTLLTPSNLLVGIFWLVFFVLQLGY | 39700
48 | TGKRKFRSSFLLYLAARWCPLFCVITILVGVDPINRINCQAYVVFAFLFANIS | 52000
49 | MSSAASSTGSPRPKRRRRRPARSCEQCRRRKIRCDMGQPCNGCVRARVSMECS | 38300
50 | MALPVIFLFFLHVNILLLCRRFLLVFFLLLVFFLLLVFFFLLLVFFLLLVFLL | 66200
51 | AMDGVAQLHALLGGCHTRLAGLVFSTFEAAVLLVYLCVDPMFPRDCPHQHVPP | 57400
52 | DLDNDIDFETAYQMLSSNFDDQMSAHIHENTFSATSPPLLTHELGIIPNVATV | 95500
53 | LIYNVCTFSLFWIVYRYNLLYVNNFRFDTSGLLFPRALDQLFTGIYVMAVCLI | 89400
54 | IQFSLIPLSILSFCINHFGLGCDVWTVSFAHITDVLHITYWVEILYTLCLYFV | 40700
55 | ASEAPKEEPKTESAPEPKQESAPESKKEAPAPAASKPEPPKQVEKKKESSSAP | 34300
56 | MSSLYFFDLMISWLLCFLAFRGDLFYMVFFFLYHFFFLLCGFWFFFCTDIHFY | 59900
57 | GKKRKSTGAKSREQPKAKRIAKAKTKTGAFGAGRKGATAGHAKGRAAAAGPKA | 59000
58 | MLLNMLMLWILYIFSVTTFSTFRYFIILPVPSLMDYSEFFRACMLGAFVLSPV | 71000
59 | RAPRTSPHQHKPAPVPAAALARTSPHPRQHQHQHASRAPPAASPHPRQHQEHQ | 31300
60 | MPFFSDFLFLFLFFFLEFFFFFFLPGFRLGYSSLFSSLLFFFFGFPIPPPHLS | 46200
61 | MILWNWILEFHSQTSFTLLLFILFHFIFFAYVPLLTSCYSHLFSFSFSTVSFI | 46900
62 | DGEGEDAEDGSKKDAEVAYHSGLGLKFRYPGDPKKLREASKLKLWTAYLKDHG | 55100
63 | DYSIAQFRFLLKLLLVHGRWNYMRACKYTLGTFWKEMLFYLTQALYQRWNGYT | 64700

Row | Sequence | transcriptional activation domain activity
64 | SGDPDEDGNGHGTHCSGTVAGKKYGVAKKANVYAVKVLRSNGSGSMSDVVKGV | 19600
65 | VSMARGKKTFDRETIVIALERLLAVAPLAFQKVKILLALASCHFDFLSSASAY | 68200
66 | GNAREMRASSARAAGFRRRGRQASNTRAAGNEREGGEQRARGRGASSARAGGI | 43400
67 | KQYCVRPNSGRIEPGKEVEVQVLLQAMREDPPPDARCRDKFLVQSVAMTGENE | 29400
68 | QSPPPAKKAKTAAGGRGKKVKPEPESGSEAEAKPEPVASKRGRVKKPAKAEQE | 14800
69 | VLSKKTIDKVLRLIRKLDWNDPQVVQALHKVFSKVWKIKFSHISLLAMLIYDL | 92000
70 | VYYFWVRIFVFSFRSTCFCIFLFYYLYLFFLFIFLYLTSSFSSFHHLSLLLVV | 57800
71 | EAGREAGKAGREEKQVKQDEERTAEDTETGKHEEDRNGEQKQRDRKTRRGKIR | 25300
72 | SNRGSGGGGRATGAHSRRGRGSGDRGGRSSARSRSKSPGAEVAEAGEPAPAVP | 17900
73 | PIEYNTWLIFRQFVDIILLNDFVAYCMFAFSHFRVPNNLSITMHLLRWICGLA | 42000
74 | HLQTITINSEGDCGHCLSKYGILVIPTLERVVLVSREGRYPWSSWYLELRVFS | 32100
75 | DGDEEDAKDGRKKKKKKRLPKSPIGNPGEKLGFVILGAQHAREWVATSAALYL | 35700
76 | MGFFFVFYLLLSHCCFSLWVRGFGFFLSHPVFLFYILGGFCLVCFFPFFFPIN | 48900
77 | VNHIVAYITLGIVGFCFLSYITLTLMPLIFHDCPYYTPFTSLLWYSAQIIPFF | 33600
78 | EVAANHRTILDHTMSLVSAVHIACLRFMTVAWAQAYRRYIVAWIRDLQVLHPH | 70400
79 | MISTLAMSLLETPIEPRTHAEICLEFWGIRLCSPITDINLAAFWNYYFKTIAH | 45600
80 | RLQRDGQAGAGRGEARGGRGPVAGGQGAQHAGPVRRHRRQRRAGHLHGRKQHQ | 32800
81 | YSIYVYRYFLYQWGDLCYMALHPTTSSLIGVIVCKLEPHRSGPFRGYIAMLAV | 42600
82 | SPDQDPHRPKVESGGEEQEQLGPPKKKRRRQALNCTECKRRKIRCDRSQPCGP | 18300
83 | MPIPLRLPFPFCFWVRMGLLDVYYHTVGGLYGYVLGGGVVICWRWWCFSFFCL | 55500
